Data as given in patent publication US20200079844A1 (Ablynx, published 2020).
Like-named read-outs stand apart in the source and are kept apart here.

Tests used:
[1] = target: T1, human TNFα (human, UniProt P01375 77-233); assay: cell-based or functional assay
[2] = target: T2, rhesus TNFα (rhesus, UniProt P48094 77-233); assay: cell-based or functional assay
[3] = target: T1, human TNFα; assay: cell-based or functional assay; remark: listed apart in the source
[4] = target: T1, human TNFα; assay: cell-based or functional assay; remark: listed apart in the source
[5] = target: T1, human TNFα; assay: cell-based or functional assay; remark: listed apart in the source
[6] = target: T1, human TNFα
[7] = target: T1, human TNFα; assay: ELISA, biotinylated TNFα on neutravidin, anti-myc detection; 50% binding
[8] = target: T1, human TNFα; remark: listed apart in the source
[9] = target: T1, human TNFα; remark: listed apart in the source
[10] = target: T1, human TNFα; remark: listed apart in the source
[11] = target: T1, human TNFα; assay: competition ELISA, biotinylated TNFα (10 ng/ml) pre-incubated with nanobody, binding to coated Enbrel; 50% inhibition
[12] = target: T1, human TNFα; assay: cell-based or functional assay; remark: listed apart in the source
[13] = target: T2, rhesus TNFα; assay: cell-based or functional assay; remark: listed apart in the source
[14] = target: T1, human TNFα; assay: competition ELISA, biotinylated human TNFα pre-incubated with nanobody, binding to coated Enbrel; 50% inhibition
[15] = target: T3, mouse serum albumin (mouse, UniProt P07724 25-608)
T3 construct: On the Biacore chip; also called mouse albumin
T3 sequence (P07724 25-608 limits assumed): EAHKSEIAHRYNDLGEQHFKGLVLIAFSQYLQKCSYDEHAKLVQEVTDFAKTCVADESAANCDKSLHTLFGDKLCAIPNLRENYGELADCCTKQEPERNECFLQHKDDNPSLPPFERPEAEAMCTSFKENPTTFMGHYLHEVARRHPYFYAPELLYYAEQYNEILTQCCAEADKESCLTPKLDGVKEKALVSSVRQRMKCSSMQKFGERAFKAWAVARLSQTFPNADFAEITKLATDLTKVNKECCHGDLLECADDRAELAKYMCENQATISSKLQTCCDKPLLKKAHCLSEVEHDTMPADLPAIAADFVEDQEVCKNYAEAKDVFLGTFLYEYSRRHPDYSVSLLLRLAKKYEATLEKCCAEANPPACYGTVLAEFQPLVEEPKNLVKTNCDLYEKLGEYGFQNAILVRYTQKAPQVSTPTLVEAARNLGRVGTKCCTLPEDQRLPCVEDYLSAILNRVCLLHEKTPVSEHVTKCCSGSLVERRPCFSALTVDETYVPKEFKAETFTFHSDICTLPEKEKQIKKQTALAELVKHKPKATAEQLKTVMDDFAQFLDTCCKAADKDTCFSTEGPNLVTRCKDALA

[16] = target: T4, human serum albumin (human, UniProt P02768 25-609)
T4 construct: On the Biacore chip; also called human albumin

[17] = target: T5, rhesus serum albumin (rhesus, UniProt Q28522 17-600)
T5 construct: On the Biacore chip; also called rhesus albumin
T5 sequence (Q28522 17-600 limits assumed): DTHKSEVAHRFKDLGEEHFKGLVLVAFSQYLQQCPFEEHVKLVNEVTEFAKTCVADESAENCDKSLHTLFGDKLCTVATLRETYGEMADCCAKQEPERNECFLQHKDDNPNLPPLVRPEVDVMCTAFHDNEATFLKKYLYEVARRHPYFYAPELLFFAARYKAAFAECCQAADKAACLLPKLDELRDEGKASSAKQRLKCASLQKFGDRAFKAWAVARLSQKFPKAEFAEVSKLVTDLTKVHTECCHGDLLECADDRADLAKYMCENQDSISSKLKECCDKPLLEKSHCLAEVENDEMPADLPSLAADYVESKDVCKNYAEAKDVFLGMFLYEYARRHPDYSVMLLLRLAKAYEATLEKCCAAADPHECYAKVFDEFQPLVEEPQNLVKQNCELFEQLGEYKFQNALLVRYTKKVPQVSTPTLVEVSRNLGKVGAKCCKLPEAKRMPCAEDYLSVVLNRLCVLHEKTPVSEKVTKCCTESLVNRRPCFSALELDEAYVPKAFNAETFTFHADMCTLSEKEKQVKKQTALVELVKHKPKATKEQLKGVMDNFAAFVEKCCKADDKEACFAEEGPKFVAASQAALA

[18] = target: T3, mouse serum albumin; remark: listed apart in the source
[19] = target: Protein A (UniProt P38507 37-477)

T1 sequence (P01375 77-233 limits assumed): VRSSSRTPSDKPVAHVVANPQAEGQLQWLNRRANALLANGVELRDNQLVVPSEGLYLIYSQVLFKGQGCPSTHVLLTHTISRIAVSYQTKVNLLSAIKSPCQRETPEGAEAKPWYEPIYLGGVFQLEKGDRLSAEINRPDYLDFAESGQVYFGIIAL
T2 sequence (P48094 77-233 limits assumed): as the sequence (P01375 77-233 limits assumed) above, with R44T, T72N, R138L counted along it

B1: PMP1G5 (TNF2) (VHH)
VHH: QVQLVESGGGLVQAGGSLRLSCAASGRTFSEPSGYTYTIGWFRQAPGKEREFVARIYWSSGLTYYADSVKGRFTISRDIAKNTVDLLMNSLKPEDTAVYYCAARDGIPTSRSVGSYNYWGQGTQVTVSS
notes: also called WT TNF2; not shown: C-terminal c-myc tag and (His)6 tag coded by vector pAX051
- EC50 in nM (mean); L929s + Act D cytotoxicity assay, human TNFα @ 0.5 ng/ml [1]: 1.41 nM
- EC50 in nM (mean); L929s + Act D cytotoxicity assay, rhesus TNFα @ 0.5 ng/ml [2]: > 50 nM
- EC50 in nM (mean); L929s + Act D cytotoxicity assay, human TNFa @ 0.5 ng/ml [3]: 1.41 nM
- EC50 in nM (mean); L929s + Act D cytotoxicity assay, human TNFa @ 0.5 ng/ml [4]: 1.41 nM
- EC50 in nM; alphaKYM cell assay (10000 c/w), human TNFa @ 1 ng/ml [5]: 4.24 nM
- koff [6]: 0.00133 s⁻¹
- EC50 [7]: 0.02 µg/mL
- koff [8]: 0.000359 s⁻¹
- koff [9]: 0.00083 s⁻¹
- koff [10]: 0.00085 s⁻¹
- IC50 [11]: 3.5 µg/mL

B2: TNF2-GS30-TNF2 (TNF8) (VHH)
chain: QVQLVESGGGLVQAGGSLRLSCAASGRTFSEPSGYTYTIGWFRQAPGKEREFVARIYWSSGLTYYADSVKGRFTISRDIAKNTVDLLMNSLKPEDTAVYYCAARDGIPTSRSVGSYNYWGQGTQVTVSSGGGGSGGGGSGGGGSGGGGSGGGGSGGGGSQVQLVESGGGLVQAGGSLRLSCAASGRTFSEPSGYTYTIGWFRQAPGKEREFVARIYWSSGLTYYADSVKGRFTISRDIAKNTVDLLMNSLKPEDTAVYYCAARDGIPTSRSVGSYNYWGQGTQVTVSS
notes: Bivalent nanobody, 30 AA GlySer linker
- EC50 in nM (mean); L929s + Act D cytotoxicity assay, human TNFa @ 0.5 ng/ml [12]: 0.007 nM
- EC50 in nM (mean); L929s + Act D cytotoxicity assay, rhesus TNFa @ 0.5 ng/ml [13]: 1.03 nM
- EC50 in nM; alphaKYM cell assay (10000 c/w), human TNFa @ 1 ng/ml [5]: 0.013 nM
- IC50 [14]: 0.023 µg/mL

B3: PMP6A8 (ALB2) (VHH)
VHH: AVQLVESGGGLVQGGGSLRLACAASERIFDLNLMGWYRQGPGNERELVATCITVGDSTNYADSVKGRFTISMDYTKQTVYLHMNSLRPEDTGLYYCKIRRTWHSELWGQGTQVTVSS
notes: Class C serum albumin nanobody; not shown: C-terminal c-myc tag and (His)6 tag coded by vector pAX051
- difference in affinity for human/rhesus versus mouse serum albumin [15]: 400 fold
- Kd [16]: 0.092 nM
- koff [16]: 7.52e-05 s⁻¹
- kon [16]: 815000 M⁻¹ s⁻¹
- Kd [17]: 0.036 nM
- koff [17]: 7.12e-05 s⁻¹
- kon [17]: 1.94e+06 M⁻¹ s⁻¹
- Kd [18]: 15.7 nM
- koff [18]: 0.00307 s⁻¹
- kon [18]: 195000 M⁻¹ s⁻¹
- binding result [19]: no binding (tested: 10 uM)
